This data set is described as follows: protein stability index of a GFP-peptide fusion (GPS, HEK-293T) (PSI 1-6); higher = more stable. Conditions: c terminus: a fixed tail appended.

± gives the standard deviation.
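Note: 24-mer peptide tiles fused after GFP, lentivirally expressed, FACS-sorted into six equal bins by GFP/DsRed ratio, decoded by Illumina sequencing, PSI is the read-weighted mean bin number.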

With LPSENLGKEPLDPDPSHSPSDKVG [TOR1AIP2], the protein stability index is 5.42 ± 0.22 (treatment: DMSO) and 5.494 ± 0.038 (treatment: MLN4924 1 uM, 8 h).
In the case of LPSWADICTNLCEALQNFFSLACS [M1AP], the protein stability index runs as follows: (treatment: DMSO) 2.89 ± 0.31; (treatment: MLN4924 1 uM, 8 h) 2.9 ± 0.14.
As for LQAKQDGKKDVSHSSPVDLKIPQV [LCOR], the protein stability index by setting is: (treatment: DMSO) 4.94 ± 0.21; (treatment: MLN4924 1 uM, 8 h) 4.92 ± 0.06.
As for LQPPHESRPQPIYYGFSESAESQG [ADAMTSL2], the protein stability index by setting is: (treatment: DMSO) 4.18 ± 0.39; (treatment: MLN4924 1 uM, 8 h) 4.22 ± 0.56.
The like results for LQQLLVLQPEQQLNIYKTLKTHLI [CDS1] were, in that order, 2.4 ± 0.55 and 2.17 ± 0.36.
The like results for LRAELTKVEEEIVTLRQVLAAKER [TPD52L2] were, in that order, 2.93 ± 0.31 and 3.45 ± 0.3.
The like results for LRGAKAFRLPGLSRREREPEPPAA [FCHO1] were, in that order, 4.37 ± 0.28 and 4.14 ± 0.29.
For the sequence LRQFDLAWQYGPCTGITRLQRWCR [POLD4], the protein stability index was 2.26 ± 0.21 (treatment: DMSO) and 2.32 ± 0.27 (treatment: MLN4924 1 uM, 8 h).
Consider LSAASPDTGHDSDKSDQSLPNASA [TRAF3IP2], for which the protein stability index (treatment: DMSO) was determined as 5.53 ± 0.28 and the protein stability index (treatment: MLN4924 1 uM, 8 h) came out at 5.51 ± 0.13.
Consider LSASGPFESHDLLRKGFSCVKNEL [POMP], for which the protein stability index by setting is: (treatment: DMSO) 3.37 ± 0.053; (treatment: MLN4924 1 uM, 8 h) 3.35 ± 0.43.
Regarding LSKFDLPEEPSAEDSINNSLVQLQ [MYBL2], the protein stability index is, setting by setting: (treatment: DMSO) 4.88 ± 0.13; (treatment: MLN4924 1 uM, 8 h) 4.85 ± 0.16.
In the case of LSNQLAVTFREENTIAFRHLFLLG [MCOLN1], the protein stability index by setting is: (treatment: DMSO) 2.48 ± 0.11; (treatment: MLN4924 1 uM, 8 h) 2.5 ± 0.18.
Regarding LSPAQKDLYRDVMLENYSNLVSVG [ZNF649], the protein stability index is, setting by setting: (treatment: DMSO) 2.37 ± 0.74; (treatment: MLN4924 1 uM, 8 h) 3.02 ± 0.77.
As for LSRHDKAVQRFCLIGSLSKHESEY [NETO1], the protein stability index by setting is: (treatment: DMSO) 2.72 ± 0.12; (treatment: MLN4924 1 uM, 8 h) 2.69 ± 0.072.
For the sequence LTDVSPEPLQALLERASATLQDLV [PRAME], the protein stability index is, setting by setting: (treatment: DMSO) 3.05 ± 0.16; (treatment: MLN4924 1 uM, 8 h) 3.33 ± 0.6.
The corresponding values for LTFHGLILRSQLVTLLVRGVCYSE [CLCN6] are 2.98 ± 0.35 and 3.03 ± 0.26.
For LTLCRSDLEAQMESLKEELLSLKQ [KRT33B], the protein stability index is, setting by setting: (treatment: DMSO) 2.41 ± 0.28; (treatment: MLN4924 1 uM, 8 h) 2.8 ± 0.24.
LTQTMHDLAGLGSETPKSQVGTLL [CDC25B] came in with a protein stability index (treatment: DMSO) of 3.39 ± 0.42 and a protein stability index (treatment: MLN4924 1 uM, 8 h) of 3.62 ± 0.22.
LVDNVYCIGQRRFHTMDELVEHYK [NCK2]: the protein stability index (treatment: DMSO) came to 3.68 ± 0.24 and the protein stability index (treatment: MLN4924 1 uM, 8 h) amounted to 3.96 ± 0.16.
Regarding LVFQRRMDGQTDFWRDWEDYAHGF [TNXB], the protein stability index (treatment: DMSO) was 2.64 ± 0.61 and the protein stability index (treatment: MLN4924 1 uM, 8 h) came out at 1.93 ± 0.51.
As to LVNPTCQVLVKDFTFEGFSRLRFL [ZER1], the protein stability index is, setting by setting: (treatment: DMSO) 2.02 ± 0.23; (treatment: MLN4924 1 uM, 8 h) 2.27 ± 0.29.
With LVQDQDLEAIRKQDLVELYLTNCE [ZER1], the protein stability index runs as follows: (treatment: DMSO) 3.61 ± 0.4; (treatment: MLN4924 1 uM, 8 h) 3.85 ± 0.38.
Regarding LVQSSRSEVTELRRVLQGLEIELQ [KRT16], the protein stability index (treatment: DMSO) was determined as 3.1 ± 0.24 and the protein stability index (treatment: MLN4924 1 uM, 8 h) is 3.08 ± 0.38.
For the sequence LVSRHDPASRRRVVEEVRRRATSG [LPCAT4], the protein stability index by setting is: (treatment: DMSO) 4.5 ± 0.19; (treatment: MLN4924 1 uM, 8 h) 4.49 ± 0.23.
On to LWSDPDDRGGWGISPRGAGYTFGQ [PPP2CA], for which the protein stability index is, setting by setting: (treatment: DMSO) 2.5 ± 0.31; (treatment: MLN4924 1 uM, 8 h) 2.72 ± 0.26.
The like results for LWTSFIQSVSYSKLLSVIVWMLML [P2RY14] were, in that order, 3.32 ± 0.53 and 3.4 ± 0.21.
Regarding LYLCPNGARCATWFQDPTRFTGTM [SLC25A39], the protein stability index reads like this: (treatment: DMSO) 2.82 ± 0.64; (treatment: MLN4924 1 uM, 8 h) 2.7 ± 0.63.
In the case of MAEGSAVSDPQHAARLLRALSSFR [GAN], the protein stability index (treatment: DMSO) stood at 3.16 ± 0.28 and the protein stability index (treatment: MLN4924 1 uM, 8 h) was 3.3 ± 0.24.
In turn, MAKFVIRPATAADCSDILRLIKEL [SAT1] showed a protein stability index (treatment: DMSO) of 2.04 ± 0.16 and a protein stability index (treatment: MLN4924 1 uM, 8 h) of 2.22 ± 0.22.
